Experimental data published in article PMC9693643, “Aminoquinolones and Their Benzoquinone Dimer Hybrids as Modulators of Prion Protein Conversion” (Molecules, 2022).

Biological target: the molecule itself
Assay: RT-QuIC (seeded fibril conversion, thioflavin T fluorescence)

B1: murine recombinant full-length prion protein (PrP23-231) (natural protein)
chain: not shown
notes: also called recombinant PrP; PrP23-231 fibril seed
  binding result: binds
